Target: the molecule itself
Assay: cryo-EM structure; purified PKD2L1 (64-629) in amphipols, 20 mM HEPES pH 7.5, 150 mM NaCl, about 5 mg/ml; C4 symmetry applied; 3.38 Å

B1: PKD2L1 (residues 64–629) (domain or fragment, mouse, UniProt A2A259 64-629, looked up)
chain: TLVSSCCLHICRSIRGLWGTTLTENTAENRELYVKTTLRELVVYIVFLVDICLLTYGMTSSSAYYYTKVMSELFLHTPSDSGVSFQTISSMSDFWDFAQGPLLDSLYWTKWYNNQSLGRGSHSFIYYENLLLGAPRLRQLRVRNDSCVVHEDFREDILNCYDVYSPDKEDQLPFGPQNGTAWTYHSQNELGGSSHWGRLTSYSGGGYYLDLPGSRQASAEALQGLQEGLWLDRGTRVVFIDFSVYNANINLFCILRLVVEFPATGGTIPSWQIRTVKLIRYVNNWDFFIVGCEVVFCVFIFYYVVEEILEIHLHRLRYLSSVWNILDLVVILLSIVAVGFHIFRTLEVNRLMGKLLQQPDTYADFEFLAFWQTQYNNMNAVNLFFAWIKIFKYISFNKTMTQLSSTLARCAKDILGFAIMFFIVFFAYAQLGYLLFGTQVENFSTFVKCIFTQFRIILGDFDYNAIDNANRILGPVYFVTYVFFVFFVLLNMFLAIINDTYSEVKEELAGQKDQLQLSDFLKQSYNKTLLRLRLRKERVSDVQKVLKGGEPEIQFEDFTSTLRELG
modifications: oligosaccharides identified on N241 and N207; glycosylation site N177
notes: Mus musculus PKD2L1, residues 64-629; lacks the EF hand and the coiled-coil domain; residues 101-563 are visible in the structure; Homotetrameric channel; Cloned in a pCAG vector; also called PKD2L1_64–629; truncated PKD2L1; source: exchanged into amphipols
stoichiometry N: 4

Reference: publication PMC5864754, “Cryo-EM structure of the polycystic kidney disease-like channel PKD2L1” (Nature Communications, 2018)
